# Article PMC8158685, “MexAB-OprM Efflux Pump Interaction with the Peptidoglycan of Escherichia coli and Pseudomonas aeruginosa” (International Journal of Molecular Sciences, 2021)
# B1: MexA (natural protein)
# chain: CGKSEAPPPAQTPEVGIVTLEAQTVTLNTELPGRTNAFRIAEVRPQVNGIILKRLFKEGSDVKAGQQLYQIDPATYEADYQSAQANLASTQEQAQRYKLLVADQAVSKQQYADANAAYLQSKAAVEQARINLRYTKVLSPISGRIGRSAVTEGALVTNGQANAMATVQQLDPIYVDVTQPSTALLRLRRELASGQLERAGDNAAKVSLKLEDGSQYPLEGRLEFSEVSVDEGTGSVTIRAVFPNPNNELLPGMFVHAQLQEGVKQKAILAPQQGVTRDLKGQATALVVNAQNKVELRVIKADRVIGDKWLVTEGLNAGDKIITEGLQFVQPGVEVKTVPAKNVASAQKADAAPAKTDSKG
# notes: MexA, periplasmic membrane fusion protein of the MexAB-OprM efflux pump, Pseudomonas aeruginosa; wild type; The pure protein was reloaded on Ni-NTA for the detergent exchange, so the His tag was probably still on it; Natural MexA is a lipoprotein whose signal peptide is cut; also called MFP; periplasmic membrane fusion protein; source: for one experiment exchanged into C12E8 on Ni-NTA
# B2: OprM (wild type, full-length) (natural protein)
# chain: CSLIPDYQRPEAPVAAAYPQGQAYGQNTGAAAVPAADIGWREFFRDPQLQQLIGVALENNRDLRVAALNVEAFRAQYRIQRADLFPRIGVDGSGTRQRLPGDLSTTGSPAISSQYGVTLGTTAWELDLFGRLRSLRDQALEQYLATEQAQRSAQTTLVASVATAYLTLKADQAQLQLTKDTLGTYQKSFDLTQRSYDVGVASALDLRQAQTAVEGARATLAQYTRLVAQDQNALVLLLGSGIPANLPQGLGLDQTLLTEVPAGLPSDLLQRRPDILEAEHQLMAANASIGAARAAFFPSISLTANAGTMSRQLSGLFDAGSGSWLFQPSINLPIFTAGSLRASLDYAKIQKDINVAQYEKAIQTAFQEVADGLAARGTFTEQLQAQRDLVKASDEYYQLADKRYRTGVDNYLTLLDAQRSLFTAQQQLITDRLNQLTSEVNLYKALGGGWNQQTVTQQQTAKKEDPQA
# notes: OprM, outer membrane factor of the MexAB-OprM efflux pump, Pseudomonas aeruginosa; wild type, 'OprM full-length'; The pure protein was reloaded on Ni-NTA for the detergent exchange, so the His tag was probably still on it; Natural OprM is a lipoprotein whose signal peptide is cut on export; also called OMF; outer-membrane factor channel; source: E. coli C43 deleted of acrB, pBAD33, purified …
# Legend:
# [1] = molecular target: B2; assay: pull-down; purified insoluble peptidoglycan (PG) of E. coli C43 as the pelleted matrix; MexA and OprM pre-mixed 2:1 (PG:MexA:OprM 100:2:1); 20 mM Tris-HCl pH 8.0, 300 mM NaCl, 0.05% DDM; 1 h room temperature; three washes; pellet on SDS-PAGE; proteins released by lysozyme; conditions: both partners purified
# [2] = molecular target: T1, OprM deleted of the flexible C-terminus residues 473-485 (OprMΔCter) (P. aeruginosa (PAO1 genome as template), UniProt Q51487 18-472); assay: pull-down; purified insoluble PG of P. aeruginosa PAO1 as the pelleted matrix; MexA and OprM pre-mixed 2:1 (PG:MexA:OprM 100:2:1); 20 mM Tris-HCl pH 8.0, 300 mM NaCl, 0.05% DDM; 1 h room temperature; three washes; pellet on SDS-PAGE; proteins released by lysozyme; conditions: both partners purified
# T1 construct: signal peptide in the construct (forward primer begins at the ATG of the precursor); OprM of Pseudomonas aeruginosa PAO1 without its last 13 residues 473-485; PCR fragment NdeI-XmaI in pBAD33; also called OprM∆Cter; source: E. coli C43 deleted of acrB, pBAD33, purified (Ni-NTA, Superdex 200) in DDM
# T1 sequence (looked up): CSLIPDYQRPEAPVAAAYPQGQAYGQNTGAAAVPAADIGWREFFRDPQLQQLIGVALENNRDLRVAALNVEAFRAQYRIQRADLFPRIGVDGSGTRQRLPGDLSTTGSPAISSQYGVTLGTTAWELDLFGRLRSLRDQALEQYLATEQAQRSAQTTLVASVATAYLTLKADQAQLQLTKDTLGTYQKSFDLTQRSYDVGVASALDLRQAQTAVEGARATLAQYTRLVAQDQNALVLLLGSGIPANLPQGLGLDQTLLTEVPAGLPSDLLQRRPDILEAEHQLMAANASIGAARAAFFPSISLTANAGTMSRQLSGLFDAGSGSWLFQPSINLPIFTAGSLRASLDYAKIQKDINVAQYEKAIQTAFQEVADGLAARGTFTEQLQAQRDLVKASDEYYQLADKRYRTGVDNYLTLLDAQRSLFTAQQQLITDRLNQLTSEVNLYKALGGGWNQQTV
# MexA = molecular target: B1; assay: pull-down; PG of P. aeruginosa, DDM; MexA and OprM mixed at 3:1 compared with 2:1; ratio in the retained complex from relative band intensities on SDS-PAGE; conditions: both partners purified
# [3] = molecular target: the molecule itself; assay: SEC; Superdex 200 gel filtration in TBS (20 mM Tris-HCl pH 8, 150 mM NaCl) with 0.05% DDM, last step of the purification
Binder,binding result [1],binding result [2],stoichiometry N (MexA),stoichiometry N [3]
B1,binds,binds,–,–
B2,–,–,2 MexA:OprM,3
